Test results published in US20260207766A1 (Bristol-Myers Squibb, published 2026).

B1: MBP003 (antibody, V domains shown)
VH: QVQLVESGGGVVQPGRSLRLSCAASGITFSSHGMHWVRQAPGKGLEWVTFISYDGSYKSYVDSVKGRFTISRDNSKNTLYLQMNSLRAEDTAVYYCATGLTGTGAFDIWGQGTMVTVSS
VL: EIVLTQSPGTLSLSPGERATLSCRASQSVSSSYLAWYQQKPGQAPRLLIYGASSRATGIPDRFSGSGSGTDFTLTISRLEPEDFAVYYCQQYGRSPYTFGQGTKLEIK
notes: also called hIgG1 form of MBP004
B2: MBP004 (antibody, V domains shown)
VH: QVQLVESGGGVVQPGRSLRLSCAASGITFSSHGMHWVRQAPGKGLEWVTFISYDGSYKSYVDSVKGRFTISRDNSKNTLYLQMNSLRAEDTAVYYCATGLTGTGAFDIWGQGTMVTVSS
VL: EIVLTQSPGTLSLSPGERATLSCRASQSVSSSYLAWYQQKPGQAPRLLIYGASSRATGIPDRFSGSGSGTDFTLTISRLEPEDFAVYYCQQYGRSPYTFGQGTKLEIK
B3: MBP006 (antibody, V domains shown)
VH: QVQLVESGGGVVQPGRSLRLSCAASGITFSSHGMHWVRQAPGKGLEWVTFISYDGSYISYVDSVKGRFTISRDNSKNTLYLQMNSLRAEDTAVYYCATGLTGTGANDIWGQGTMVTVSS
VL: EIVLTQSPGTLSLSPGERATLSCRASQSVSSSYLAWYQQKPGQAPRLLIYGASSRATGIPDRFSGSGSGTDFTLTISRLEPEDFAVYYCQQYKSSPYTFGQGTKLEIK
B4: MBP008 (antibody, IgG1, V domains shown)
VH: QVQLVESGGGVVQPGRSLRLSCAASGITFSSHGMHWVRQAPGKGLEWVTFISYDGSYKSYVDSVKGRFTISRDNSKNTLYLQMNSLRAEDTAVYYCATGLTGTNALDIWGQGTMVTVSS
VL: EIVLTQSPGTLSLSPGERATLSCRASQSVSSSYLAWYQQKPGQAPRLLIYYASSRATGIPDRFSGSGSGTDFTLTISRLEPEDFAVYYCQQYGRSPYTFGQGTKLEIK
B5: MBP011 (antibody, IgG1, V domains shown)
VH: QVQLVESGGGVVQPGRSLRLSCAASGITFSSHGMHWVRQAPGKGLEWVTFISYDGSIKSYVDSVKGRFTISRDNSKNTLYLQMNSLRAEDTAVYYCATGLTGTGAFDIWGQGTMVTVSS
VL: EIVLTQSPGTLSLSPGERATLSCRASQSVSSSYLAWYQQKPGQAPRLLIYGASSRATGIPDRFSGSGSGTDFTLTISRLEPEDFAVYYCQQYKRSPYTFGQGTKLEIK
B6: MBP009 (antibody, IgG1, V domains shown)
VH: QVQLVESGGGVVQPGRSLRLSCAASGIYFSSHGMHWVRQAPGKGLEWVTFISYDGSYKSYVDSVKGRFTISRDNSKNTLYLQMNSLRAEDTAVYYCATGLTGTGAFDIWGQGTMVTVSS
VL: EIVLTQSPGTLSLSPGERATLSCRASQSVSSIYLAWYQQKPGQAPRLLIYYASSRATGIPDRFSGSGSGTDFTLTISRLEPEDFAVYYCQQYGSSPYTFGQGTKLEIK
B7: MBP010 (antibody, IgG1, V domains shown)
VH: QVQLVESGGGVVQPGRSLRLSCAASGITFSSHGMHWVRQAPGKGLEWVTFISYDSSYKSYVDSVKGRFTISRDNSKNTLYLQMNSLRAEDTAVYYCATGLTGTGAFDIWGQGTMVTVSS
VL: EIVLTQSPGTLSLSPGERATLSCRASQSVSSSYLAWYQQKPGQAPRLLIYGASSRATGIPDRFSGSGSGTDFTLTISRLEPEDFAVYYCQQNKRSPYTFGQGTKLEIK
B8: MBP007 (antibody, IgG1, V domains shown)
VH: QVQLVESGGGVVQPGRSLRLSCAASGIYFSSHGMHWVRQAPGKGLEWVTFISYDGSYKSYVDSVKGRFTISRDNSKNTLYLQMNSLRAEDTAVYYCATGLTGTGANDIWGQGTMVTVSS
VL: EIVLTQSPGTLSLSPGERATLSCRASQSVSSSYLAWYQQKPGQAPRLLIYGASSRATGIPDRFSGSGSGTDFTLTISRLEPEDFAVYYCQQNKPSPYTFGQGTKLEIK
B9: MBP005 (antibody, V domains shown)
VH: QVQLVESGGGVVQPGRSLRLSCAASGIYFSSHGMHWVRQAPGKGLEWVTFISYDGSYKSYVDSVKGRFTISRDNSKNTLYLQMNSLRAEDTAVYYCATGLTGTGAFDIWGQGTMVTVSS
VL: not shown

Columns and labels:
human CEACAM5 on cells [1] = biological target: T1, human CEACAM5 on cells (human, UniProt P06731 35-685); assay: cell-based or functional assay
T1 sequence: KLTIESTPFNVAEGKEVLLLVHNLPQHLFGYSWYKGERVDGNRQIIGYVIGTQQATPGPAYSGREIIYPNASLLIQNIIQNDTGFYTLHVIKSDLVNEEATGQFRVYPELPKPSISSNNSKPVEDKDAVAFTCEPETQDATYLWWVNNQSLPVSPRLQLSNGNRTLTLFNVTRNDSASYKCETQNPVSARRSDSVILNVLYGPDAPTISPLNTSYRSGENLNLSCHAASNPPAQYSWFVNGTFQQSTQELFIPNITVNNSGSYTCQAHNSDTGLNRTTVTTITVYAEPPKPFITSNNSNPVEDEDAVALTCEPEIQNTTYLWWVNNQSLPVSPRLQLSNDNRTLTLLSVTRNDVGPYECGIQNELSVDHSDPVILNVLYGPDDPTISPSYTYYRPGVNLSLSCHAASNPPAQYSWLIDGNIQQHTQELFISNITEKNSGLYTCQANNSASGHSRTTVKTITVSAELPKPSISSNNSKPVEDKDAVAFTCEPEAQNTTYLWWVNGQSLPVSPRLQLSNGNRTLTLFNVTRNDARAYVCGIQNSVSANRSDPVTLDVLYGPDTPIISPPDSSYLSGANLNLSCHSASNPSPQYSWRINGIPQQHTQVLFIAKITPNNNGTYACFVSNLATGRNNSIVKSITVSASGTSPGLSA

human CEACAM5 on cells [2] = biological target: T1, human CEACAM5 on cells; assay: FACS on MKN45 cells
human CEACAM5 on cells [3] = biological target: T1, human CEACAM5 on cells; assay: FACS on LS174T cells
[4] = biological target: T2, full-length human CEACAM5 (recombinant, internally generated) (human, UniProt P06731 35-685, limits assumed); assay: SPR Biacore, mAb captured on anti-human Fc, full-length antigen analyte, 1:1 fit
T2 construct: Printed only as 'full-length'; also called Full-length huCEACAM5; biotinylated human CEACAM5
T2 sequence: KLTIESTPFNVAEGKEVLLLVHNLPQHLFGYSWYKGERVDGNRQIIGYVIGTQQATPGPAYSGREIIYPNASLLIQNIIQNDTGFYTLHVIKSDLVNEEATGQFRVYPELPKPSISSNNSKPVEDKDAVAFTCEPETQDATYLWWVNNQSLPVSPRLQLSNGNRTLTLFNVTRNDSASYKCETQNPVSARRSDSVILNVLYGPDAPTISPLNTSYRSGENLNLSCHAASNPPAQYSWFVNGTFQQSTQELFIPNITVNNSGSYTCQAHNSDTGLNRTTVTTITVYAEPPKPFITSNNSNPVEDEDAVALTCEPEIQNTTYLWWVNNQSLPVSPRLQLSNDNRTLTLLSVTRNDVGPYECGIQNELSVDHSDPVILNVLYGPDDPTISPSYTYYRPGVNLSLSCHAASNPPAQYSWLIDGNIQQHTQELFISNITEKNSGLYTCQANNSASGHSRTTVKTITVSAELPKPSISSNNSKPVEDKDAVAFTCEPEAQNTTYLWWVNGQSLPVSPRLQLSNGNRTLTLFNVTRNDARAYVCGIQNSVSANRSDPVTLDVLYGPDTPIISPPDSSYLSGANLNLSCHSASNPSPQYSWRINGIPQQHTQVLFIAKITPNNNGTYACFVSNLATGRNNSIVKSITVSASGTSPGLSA
Excerpt: The BIACORE® instrument was primed with 1×HBSP+ running buffer (Cytiva catalog no. BR100671). The CM5 chip (Cytiva catalog no. 29149604) was equilibrated to room temperature, and the BIACORE® instrument was re-primed. A human antibody Fc capture kit (Cytiva catalog no. 29234600) was utilized for this analysis. The human antibody Fc capture reagent was immobilized to both flow cells in all 8 flow channels of the CM5 chip via amine-coupling using the following conditions. Immobilization was performed at a temperature of 25° C. The anti-human Fc capture reagent was diluted to a concentration of 25 μg/mL in acetate pH5 buffer. The chip surface was activated by injecting a mixture of 1-ethyl-3-(-3-dimethylaminopropyl) carbodiimide hydrochloride (EDC) and N-hydroxy succinimide (NHS) for 420 seconds at a rate of 10 microliters per minute (uL/min). A concentration (25 ug/mL) of anti-human Fc capture reagent was then injected on the surface for 420 seconds at a rate of 10 uL/min. The remaining chip surface was blocked by injecting ethanolamine for 420 seconds at a rate of 10 uL/min.
The SPR kinetics against full-length human and cyno CEACAM5 were set up as follows. The antibody capture was performed by diluting the antibodies to a concentration of 10 nM in HBSP+ buffer. The 10 nM mAbs were captured for 20 seconds at 5 uL/min to achieve capture levels of approximately 100 RU. […] The association rate was 180 seconds at 30 uL/min. The dissociation rate was 600 seconds at 30 uL/min. Regeneration was performed using two injections of 3M magnesium chloride MgCl₂ for 30 seconds at 30 uL/min. A data fit was performed using a 1:1 binding model with global Rmax. Rmax reflects the maximal response when all ligand is occupied.

[5] = biological target: T3, human CEACAM7 (R&D Systems catalog #9010-CM-050) (human, UniProt Q14002 36-242, limits assumed); assay: SPR
T3 sequence (looked up): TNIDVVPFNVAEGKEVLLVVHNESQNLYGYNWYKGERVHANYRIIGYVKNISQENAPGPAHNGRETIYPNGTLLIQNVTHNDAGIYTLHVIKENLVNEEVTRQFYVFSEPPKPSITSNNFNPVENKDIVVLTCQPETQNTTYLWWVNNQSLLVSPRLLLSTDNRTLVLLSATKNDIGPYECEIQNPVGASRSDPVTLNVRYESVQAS

[6] = biological target: T4, human CEACAM8 (R&D Systems catalog #9639-CM-050) (human, UniProt P31997 35-320, limits assumed); assay: SPR
T4 sequence (looked up): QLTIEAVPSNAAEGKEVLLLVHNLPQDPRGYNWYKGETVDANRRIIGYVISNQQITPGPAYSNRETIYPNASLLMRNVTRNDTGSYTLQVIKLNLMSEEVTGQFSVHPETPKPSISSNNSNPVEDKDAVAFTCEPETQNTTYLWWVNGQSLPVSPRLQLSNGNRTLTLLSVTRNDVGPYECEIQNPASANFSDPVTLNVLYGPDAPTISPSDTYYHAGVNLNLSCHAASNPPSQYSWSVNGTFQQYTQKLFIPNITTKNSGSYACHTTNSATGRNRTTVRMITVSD

[7] = biological target: T5, human CEACAM1 on CHO-S cells (human, UniProt P13688 35-526); assay: flow cytometry on CHO-S (CEACAM-1) cells
T5 construct: whole, on cells; also called CHO-S-huCEACAM1
T5 sequence (looked up): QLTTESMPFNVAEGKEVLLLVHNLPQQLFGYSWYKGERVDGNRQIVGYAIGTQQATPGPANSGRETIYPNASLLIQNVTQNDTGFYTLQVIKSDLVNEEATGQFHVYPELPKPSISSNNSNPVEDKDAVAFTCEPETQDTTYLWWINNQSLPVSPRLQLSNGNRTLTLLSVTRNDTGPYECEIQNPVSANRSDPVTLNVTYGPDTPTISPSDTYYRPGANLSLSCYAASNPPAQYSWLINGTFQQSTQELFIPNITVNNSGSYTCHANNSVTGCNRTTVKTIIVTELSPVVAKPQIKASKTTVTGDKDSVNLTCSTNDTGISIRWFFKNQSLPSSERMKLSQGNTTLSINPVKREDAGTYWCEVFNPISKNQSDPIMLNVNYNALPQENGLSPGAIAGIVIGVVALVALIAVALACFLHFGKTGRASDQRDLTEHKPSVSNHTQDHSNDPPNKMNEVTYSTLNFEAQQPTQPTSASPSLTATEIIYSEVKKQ

human CEACAM5 on cells [8] = biological target: T1, human CEACAM5 on cells; assay: FACS on BxPC3 cells
[9] = biological target: T6, human CEACAM6 on HCT116 cells (human, UniProt P40199 35-320); assay: flow cytometry on HCT-116 (CEACAM-6) cells
T6 construct: whole, on cells; also called HCT116-huCEACAM6
T6 sequence (looked up): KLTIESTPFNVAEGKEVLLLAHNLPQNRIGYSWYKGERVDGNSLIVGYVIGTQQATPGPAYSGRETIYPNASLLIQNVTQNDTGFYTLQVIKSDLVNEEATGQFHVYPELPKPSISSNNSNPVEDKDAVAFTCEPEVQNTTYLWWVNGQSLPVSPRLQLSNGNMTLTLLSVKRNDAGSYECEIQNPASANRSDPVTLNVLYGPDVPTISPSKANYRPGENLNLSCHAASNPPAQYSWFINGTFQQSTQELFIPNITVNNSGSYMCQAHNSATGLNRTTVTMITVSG

Binder | Ls174T 5-day cytotoxicity (AUC), antibody conjugated to Compound A' (human CEACAM5 on cells [1]) | MKN45 5-day cytotoxicity (AUC), antibody conjugated to Compound A' (human CEACAM5 on cells [1]) | EC50 (human CEACAM5 on cells [2]) [nM] | EC50 (human CEACAM5 on cells [3]) [nM] | Kd [4] [nM] | koff [4] [s⁻¹] | kon [4] [M⁻¹ s⁻¹] | binding result [5] | binding result [6] | binding result [7] | EC50 (human CEACAM5 on cells [8]) [nM] | binding result [9] | Ls174T 5-day cytotoxicity (AUC) (human CEACAM5 on cells [1]) | MKN45 5-day cytotoxicity (AUC) (human CEACAM5 on cells [1])
B1 | 18500 | 24400 | 2.4 | 1.7 | 23.4 | 0.000982 | 42000 | no binding | no binding | no binding (tested: 300 nM) | 1.9 | no binding (tested: 300 nM) | – | –
B2 | – | – | – | – | 17.3 | 0.00131 | 76000 | – | – | – | – | – | 865 | 2380
B3 | – | – | – | – | 6.03 | 0.000513 | 85100 | – | – | – | – | – | 902 | 2440
B4 | – | – | – | – | 5.91 | 0.000527 | 89200 | – | – | – | – | – | 1140 | 2200
B5 | – | – | – | – | 14.2 | 0.000671 | 47100 | – | – | – | – | – | 939 | 1770
B6 | – | – | – | – | 2.78 | 0.00048 | 172000 | – | – | – | – | – | 1040 | 2200
B7 | – | – | – | – | 20.4 | 0.00102 | 50000 | – | – | – | – | – | 910 | 1360
B8 | – | – | – | – | 21.5 | 0.00171 | 79600 | – | – | – | – | – | 834 | 2070
B9 | – | – | – | – | – | – | – | – | – | – | – | – | 964 | 2350
